Consider one protein from paper PMC10726430 (Cell metabolism, 2023).

The data set deals with the molecule itself. Description: native gel or EMSA.

B1: NSUN2-F1 (amino acid 1–767), recombinant NSUN2 protein (enzyme, human, UniProt Q08J23-1 1-767, looked up)
chain: MGRRSRGRRLQQQQRPEDAEDGAEGGGKRGEAGWEGGYPEIVKENKLFEHYYQELKIVPEGEWGQFMDALREPLPATLRITGYKSHAKEILHCLKNKYFKELEDLEVDGQKVEVPQPLSWYPEELAWHTNLSRKILRKSPHLEKFHQFLVSETESGNISRQEAVSMIPPLLLNVRPHHKILDMCAAPGSKTTQLIEMLHADMNVPFPEGFVIANDVDNKRCYLLVHQAKRLSSPCIMVVNHDASSIPRLQIDVDGRKEILFYDRILCDVPCSGDGTMRKNIDVWKKWTTLNSLQLHGLQLRIATRGAEQLAEGGRMVYSTCSLNPIEDEAVIASLLEKSEGALELADVSNELPGLKWMPGITQWKVMTKDGQWFTDWDAVPHSRHTQIRPTMFPPKDPEKLQAMHLERCLRILPHHQNTGGFFVAVLVKKSSMPWNKRQPKLQGKSAETRESTQLSPADLTEGKPTDPSKLESPSFTGTGDTEIAHATEDLENNGSKKDGVCGPPPSKKMKLFGFKEDPFVFIPEDDPLFPPIEKFYALDPSFPRMNLLTRTTEGKKRQLYMVSKELRNVLLNNSEKMKVINTGIKVWCRNNSGEEFDCAFRLAQEGIYTLYPFINSRIITVSMEDVKILLTQENPFFRKLSSETYSQAKDLAKGSIVLKYEPDSANPDALQCPIVLCGWRGKASIRTFVPKNERLHYLRMMGLEVLGEKKKEGVILTNESAASTGQPDNDVTEGQRAGEPNSPDAEEANSPDVTAGCDPAGVHPPR
On to B1, for which the binding result is “binds”.
